{"source": "the supplement of paper PMC10567573", "parents": {"B1": {"name": "SNAP91 (parent)", "chain": "FSTDAFSSPPQGASPVPESSLTAD"}, "B2": {"name": "RHOBTB3 (parent)", "chain": "GGADIIVIKYNVNDKFSFHEVKDN"}}}
{"variants_of": "B1", "assay": "protein stability index of a GFP-peptide fusion (GPS, HEK-293T) (PSI 1-6); higher = more stable", "conditions": "c terminus: a fixed tail appended"}
{"variant": "D4L", "protein stability index": 2.63}
{"variant": "D4H", "protein stability index": 3.44}
{"variant": "D4T", "protein stability index": 2.21}
{"variant": "D4V", "protein stability index": 3.28}
{"variant": "D4F", "protein stability index": 3.06}
{"variant": "D4K", "protein stability index": 2.94}
{"variant": "D4P", "protein stability index": 4.29}
{"variant": "D4W", "protein stability index": 1.67}
{"variant": "D4Y", "protein stability index": 3.02}
{"variant": "D4M", "protein stability index": 2.92}
{"variant": "D4G", "protein stability index": 2.71}
{"variant": "D4N", "protein stability index": 2.66}
{"variant": "D4E", "protein stability index": 4.2}
{"variant": "D4A", "protein stability index": 3.25}
{"variant": "D4I", "protein stability index": 3.45}
{"variant": "D4Q", "protein stability index": 3.28}
{"variant": "D4S", "protein stability index": 2.82}
{"variant": "D4C", "protein stability index": 2.76}
{"variant": "D4R", "protein stability index": 2.37}
{"variant": "S7E", "protein stability index": 5.35}
{"variant": "S7A", "protein stability index": 2.98}
{"variant": "S7D", "protein stability index": 5.47}
{"variant": "S7C", "protein stability index": 2.18}
{"variant": "S7H", "protein stability index": 2.51}
{"variant": "S7I", "protein stability index": 2.66}
{"variant": "S7G", "protein stability index": 3.89}
{"variant": "S7F", "protein stability index": 1.99}
{"variant": "A5T", "protein stability index": 4.96}
{"variant": "A5F", "protein stability index": 2.03}
{"variant": "A5L", "protein stability index": 3.55}
{"variant": "A5V", "protein stability index": 4.18}
{"variant": "A5E", "protein stability index": 4.8}
{"variant": "A5C", "protein stability index": 4.07}
{"variant": "A5N", "protein stability index": 5.16}
{"variant": "A5K", "protein stability index": 4.71}
{"variant": "A5G", "protein stability index": 4.76}
{"variant": "A5H", "protein stability index": 4.59}
{"variant": "A5D", "protein stability index": 5.61}
{"variant": "A5P", "protein stability index": 4.94}
{"variant": "A5W", "protein stability index": 1.92}
{"variant": "A5S", "protein stability index": 4.68}
{"variant": "A5Q", "protein stability index": 4.88}
{"variant": "A5I", "protein stability index": 3.79}
{"variant": "A5M", "protein stability index": 4.56}
{"variant": "A5Y", "protein stability index": 2.33}
{"variant": "A5R", "protein stability index": 4.71}
{"variant": "F6M", "protein stability index": 5.53}
{"variant": "F6Y", "protein stability index": 3.26}
{"variant": "F6G", "protein stability index": 5.48}
{"variant": "F6L", "protein stability index": 5.55}
{"variant": "F6W", "protein stability index": 1.86}
{"variant": "F6C", "protein stability index": 5.09}
{"variant": "F6P", "protein stability index": 5.53}
{"variant": "F6N", "protein stability index": 5.31}
{"variant": "F6R", "protein stability index": 5.49}
{"variant": "F6H", "protein stability index": 5.62}
{"variant": "F6S", "protein stability index": 5.44}
{"variant": "F6I", "protein stability index": 5.43}
{"variant": "F6D", "protein stability index": 5.44}
{"variant": "F6V", "protein stability index": 5.59}
{"variant": "F6K", "protein stability index": 5.38}
{"variant": "F6T", "protein stability index": 5.61}
{"variant": "F6Q", "protein stability index": 5.63}
{"variant": "F6A", "protein stability index": 5.57}
{"variant": "F6E", "protein stability index": 5.69}
{"variant": "S2F", "protein stability index": 3.96}
{"variant": "S2G", "protein stability index": 2.8}
{"variant": "S2M", "protein stability index": 3.32}
{"variant": "S2W", "protein stability index": 3.48}
{"variant": "S2C", "protein stability index": 2.46}
{"variant": "S2Y", "protein stability index": 4.7}
{"variant": "S2R", "protein stability index": 5.05}
{"variant": "S2I", "protein stability index": 1.64}
{"variant": "S2Q", "protein stability index": 2.58}
{"variant": "S2T", "protein stability index": 1.67}
{"variant": "S2E", "protein stability index": 5.52}
{"variant": "S2N", "protein stability index": 5.09}
{"variant": "S2A", "protein stability index": 2.09}
{"variant": "S2L", "protein stability index": 3.34}
{"variant": "S2K", "protein stability index": 5.08}
{"variant": "S2V", "protein stability index": 3.15}
{"variant": "S2D", "protein stability index": 5.7}
{"variant": "S2P", "protein stability index": 3}
{"variant": "S2H", "protein stability index": 2.15}
{"variant": "F1G", "protein stability index": 5.54}
{"variant": "F1I", "protein stability index": 5.36}
{"variant": "F1Q", "protein stability index": 5.64}
{"variant": "F1M", "protein stability index": 5.44}
{"variant": "F1A", "protein stability index": 5.73}
{"variant": "F1T", "protein stability index": 5.55}
{"variant": "F1H", "protein stability index": 5.37}
{"variant": "F1S", "protein stability index": 5.65}
{"variant": "F1Y", "protein stability index": 3.31}
{"variant": "F1D", "protein stability index": 5.72}
{"variant": "F1E", "protein stability index": 5.47}
{"variant": "F1V", "protein stability index": 5.52}
{"variant": "F1L", "protein stability index": 5.57}
{"variant": "F1K", "protein stability index": 5.34}
{"variant": "F1N", "protein stability index": 5.74}
{"variant": "F1W", "protein stability index": 5.19}
{"variant": "F1P", "protein stability index": 5.68}
{"variant": "F1C", "protein stability index": 5.07}
{"variant": "F1R", "protein stability index": 5.39}
{"variant": "T3F", "protein stability index": 4.6}
{"variant": "T3K", "protein stability index": 4.93}
{"variant": "T3I", "protein stability index": 4.4}
{"variant": "T3V", "protein stability index": 4.56}
{"variant": "T3R", "protein stability index": 4.91}
{"variant": "T3H", "protein stability index": 5.4}
{"variant": "T3N", "protein stability index": 4.84}
{"variant": "T3Y", "protein stability index": 4.46}
{"variant": "T3S", "protein stability index": 2.95}
{"variant": "T3Q", "protein stability index": 5.5}
{"variant": "T3C", "protein stability index": 4.3}
{"variant": "T3A", "protein stability index": 5.12}
{"variant": "T3W", "protein stability index": 4.38}
{"variant": "T3M", "protein stability index": 3.37}
{"variant": "T3G", "protein stability index": 4.47}
{"variant": "T3L", "protein stability index": 4.93}
{"variant": "T3P", "protein stability index": 4.49}
{"variant": "T3E", "protein stability index": 5.08}
{"variant": "T3D", "protein stability index": 5.08}
{"variants_of": "B2", "assay": "protein stability index of a GFP-peptide fusion (GPS, HEK-293T) (PSI 1-6); higher = more stable", "conditions": "c terminus: a fixed tail appended"}
{"variant": "G1H", "protein stability index": 2.3}
{"variant": "G1D", "protein stability index": 2.67}
{"variant": "N24A", "protein stability index": 2.09}
{"variant": "N24D", "protein stability index": 1.94}
{"variant": "N24T", "protein stability index": 4.04}
{"variant": "D4H", "protein stability index": 2.21}
{"variant": "H19S", "protein stability index": 2.72}
{"variant": "D23T", "protein stability index": 4.21}
{"variant": "D23H", "protein stability index": 3.28}
{"variant": "D14G", "protein stability index": 1.72}
{"variant": "N13F", "protein stability index": 3.47}
{"variant": "K22C", "protein stability index": 2.88}
{"variant": "K22Y", "protein stability index": 3.11}
{"variant": "K22T", "protein stability index": 2.58}
{"variant": "S17T", "protein stability index": 2.25}
{"variant": "S17A", "protein stability index": 3.54}
{"variant": "E20Y", "protein stability index": 2.26}
{"variant": "A3P", "protein stability index": 2.35}
{"variant": "A3D", "protein stability index": 2.85}
{"variant": "Y10H", "protein stability index": 1.92}
{"variant": "Y10M", "protein stability index": 1.94}
{"variant": "Y10C", "protein stability index": 3.4}
{"variant": "Y10Q", "protein stability index": 1.62}
{"variant": "Y10S", "protein stability index": 1.88}
{"variant": "V21T", "protein stability index": 1.46}
{"variant": "V21Y", "protein stability index": 2.98}
{"variant": "V21E", "protein stability index": 1.37}
{"variant": "V21S", "protein stability index": 2.5}
{"variant": "I6C", "protein stability index": 1.67}
{"variant": "F18W", "protein stability index": 2.08}
{"variant": "V7H", "protein stability index": 2.28}
{"variant": "V7F", "protein stability index": 3.21}
{"variant": "F16V", "protein stability index": 1.98}
{"variant": "F16H", "protein stability index": 1.53}
{"variant": "F16E", "protein stability index": 2.12}
{"variant": "F16Q", "protein stability index": 1.85}
{"variant": "F16W", "protein stability index": 4.02}
{"variant": "I8D", "protein stability index": 3.81}
{"variant": "I8T", "protein stability index": 2.95}
{"variant": "N11P", "protein stability index": 3.2}
{"variant": "G2T", "protein stability index": 2.38}
{"variant": "I5W", "protein stability index": 2.59}
{"variant": "V12M", "protein stability index": 2.67}
{"variant": "V12D", "protein stability index": 1.95}
{"variant": "V12Y", "protein stability index": 2.38}
